Test results reported in patent publication US20210130436A1 (published 2021).
Positions count from the first letter of the chain named. Names and notes keep the numbering of the source.

B1: variant CD80 IgV-Fc (inert) H18L/A26N/D46E/V68M/A71G/D90G (Fc fusion)
chain: VIHVTKEVKEVATLSCGLNVSVEELNQTRIYWQKEKKMVLTMMSGEMNIWPEYKNRTIFDITNNLSIMILGLRPSDEGTYECVVLKYEKGAFKREHLAEVTLSVKAD
notes: not shown: inert human IgG1 Fc
B2: variant CD80 IgV-Fc (inert) H18Y/E35D/M47V/V68L/A71G/D90G (Fc fusion)
chain: B1 chain with L18Y, N26A, E35D, E46D, M47V, M68L
notes: as for B1
B3: variant CD80 IgV-Fc (inert) H18L/E35D/M47V/V68M/A71G/D90G (Fc fusion)
chain: B1 chain with N26A, E35D, E46D, M47V
notes: as for B1
B4: variant CD80 IgV-Fc (inert) H18Y/A26P/E35D/M47Y/V68I/A71G/D90G (Fc fusion)
chain: B1 chain with L18Y, N26P, E35D, E46D, M47Y, M68I
notes: as for B1
B5: variant CD80 IgV-Fc (inert) H18V/A26P/E35D/M47L/V68M/A71G (Fc fusion)
chain: B1 chain with L18V, N26P, E35D, E46D, M47L, G90D
notes: as for B1
B6: variant CD80 IgV-Fc (inert) H18V/A26K/E35D/M47L/V68M/A71G (Fc fusion)
chain: B1 chain with L18V, N26K, E35D, E46D, M47L, G90D
notes: as for B1
B7: variant CD80 IgV-Fc (inert) H18V/A26G/E35D/M47V/V68M/A71G/D90G (Fc fusion)
chain: B1 chain with L18V, N26G, E35D, E46D, M47V
notes: as for B1
B8: variant CD80 IgV-Fc (inert) H18V/A26D/E35D/M47V/V68M/A71G/D90G (Fc fusion)
chain: B1 chain with L18V, N26D, E35D, E46D, M47V
notes: as for B1
B9: variant CD80 IgV-Fc (inert) H18Y/A26P/E35D/M47I/V68M/A71G (Fc fusion)
chain: B1 chain with L18Y, N26P, E35D, E46D, M47I, G90D
notes: as for B1
B10: variant CD80 IgV-Fc (inert) H18V/A26Q/E35D/M47V/V68L/A71G/D90G (Fc fusion)
chain: B1 chain with L18V, N26Q, E35D, E46D, M47V, M68L
notes: as for B1
B11: variant CD80 IgV-Fc (inert) H18Y/E35D/M47V/V68M/A71G (Fc fusion)
chain: B1 chain with L18Y, N26A, E35D, E46D, M47V, G90D
notes: Fc fusions are dimeric by the general description; not shown: inert human IgG1 Fc
B12: variant CD80 IgV-Fc (inert) H18T/A26N/E35D/M47L/V68M/A71G (Fc fusion)
chain: B1 chain with L18T, E35D, E46D, M47L, G90D
notes: as for B1
B13: E35D/M47I/T62S/L85Q/E88D CD80 IgV-Fc (Fc fusion, not shown: a dimerising Fc or GST)
chain: VIHVTKEVKEVATLSCGHNVSVEELAQTRIYWQKDKKMVLTMMSGDINIWPEYKNRTIFDISNNLSIVILALRPSDEGTYECVVQKYDKDAFKREHLAEVTLSVKAD
B14: variant CD80 IgV-Fc H18Y/E35D/M38I/M47L/V68M/L85M (Fc fusion, not shown: small tags and cut ends; a dimerising Fc or GST)
chain: B13 chain with H18Y, M38I, I47L, S62T, V68M, Q85M, D88E
B15: H18Y/E35D/M47I/V68M/A71G/R94L CD80 IgV-Fc (Fc fusion, not shown: a dimerising Fc or GST)
chain: B13 chain with H18Y, S62T, V68M, A71G, Q85L, D88E, R94L
B16: WT CD80 ECD-Fc (Fc fusion, not shown: a dimerising Fc or GST)
chain: VIHVTKEVKEVATLSCGHNVSVEELAQTRIYWQKEKKMVLTMMSGDMNIWPEYKNRTIFDITNNLSIVILALRPSDEGTYECVVLKYEKDAFKREHLAEVTLSVKADFPTPSISDFEIPTSNIRRIICSTSGGFPEPHLSWLENGEELNAINTTVSQDPETELYAVSSKLDFNMTTNHSFMCLIKYGHLRVNQTFNWNTTKQEHFPDN
notes: The label 'H22.6' is not explained; also called WT CD80 ECD-Fc H22.6
B17: A26E/Q27R/E35D/M47L/N48Y/L85Q CD80 IgV-Fc (Fc fusion, not shown: a dimerising Fc or GST)
chain: B13 chain with A26E, Q27R, I47L, N48Y, S62T, D88E
B18: wild-type CD80 ECD-Fc (R&D Systems) (Fc fusion)
chain: B16 chain
notes: This is a commercial protein; also called WT CD80 ECD-Fc (R&D); unmodified CD80-ECD-Fc fusion molecule; not shown: Bought protein (R&D Systems)
B19: variant CD80 IgV-Fc E35D/D46V/M47I/A71G/F92V (Fc fusion, not shown: a dimerising Fc or GST)
chain: B13 chain with D46V, S62T, A71G, Q85L, D88E, F92V

Molecular target: T1, human CTLA-4 (human, UniProt P16410 36-223)
T1 construct: whole, on cells; CHO cells stably expressing huCTLA4; also called huCTLA4
Test: flow cytometry, CHO cells stably expressing huCTLA-4, 33.3 nM Fc fusion, PE anti-human Fc
T1 sequence (P16410 36-223): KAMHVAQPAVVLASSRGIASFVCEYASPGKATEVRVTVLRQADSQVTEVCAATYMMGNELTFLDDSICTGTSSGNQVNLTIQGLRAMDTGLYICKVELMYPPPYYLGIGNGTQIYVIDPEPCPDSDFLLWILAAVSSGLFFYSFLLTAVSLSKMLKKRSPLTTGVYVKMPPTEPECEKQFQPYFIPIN

Binder	MFI at 33.3 nM [MFI]
B1	17000
B2	16500
B3	20300
B4	8280
B5	16200
B6	22900
B7	25400
B8	22100
B9	12200
B10	17700
B11	23600
B12	20900

Molecular target: T2, human CTLA-4 (human, UniProt P16410 36-223)
T2 construct: whole, on cells; also called huCTLA4
Test: flow cytometry, CHO cells stably expressing huCTLA4, 33.3 nM, PE anti-human Fc
T2 sequence (P16410 36-223): as above

Binder	MFI at 33.3 nM [MFI]
B13	8910

Molecular target: T3, human PD-L1 (human, UniProt Q9NZQ7 19-290)
T3 construct: whole, on cells; CHO cells stably expressing huPD-L1; also called huPD-L1
Test: flow cytometry, CHO cells stably expressing huPD-L1, 33.3 nM Fc fusion, PE anti-human Fc
T3 sequence (Q9NZQ7 19-290): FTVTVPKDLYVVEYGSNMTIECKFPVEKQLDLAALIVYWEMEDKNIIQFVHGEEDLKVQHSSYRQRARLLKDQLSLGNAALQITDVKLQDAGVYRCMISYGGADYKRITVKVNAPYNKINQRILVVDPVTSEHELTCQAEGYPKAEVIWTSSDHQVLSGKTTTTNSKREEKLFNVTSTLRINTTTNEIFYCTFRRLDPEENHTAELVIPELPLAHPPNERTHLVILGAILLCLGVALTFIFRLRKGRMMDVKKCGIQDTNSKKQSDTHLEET

Binder	MFI at 33.3 nM [MFI]
B1	68000
B2	47900
B3	64800
B4	27300
B5	52400
B6	67300
B7	66200
B8	67500
B9	54500
B10	33600
B11	64900
B12	68500

Molecular target: T4, human PD-L1 (huPD-L1), full-length, stably expressed on CHO cells (human, UniProt Q9NZQ7 19-290)
T4 construct: whole, on cells
Test: flow cytometry, CHO cells expressing huPD-L1

T4 sequence (Q9NZQ7 19-290): as above

Binder	MFI at 33.3 nM [MFI]
B14	3590

Molecular target: T3, human PD-L1
Test: flow cytometry MFI relative to WT CD80 IgV-Fc, CHO/huPD-L1 cells, 33.3 nM

Binder	Fold change to WT CD80 [fold]
B1	412
B2	290
B3	392
B4	165
B5	318
B6	408
B7	401
B8	409
B9	330
B10	204
B11	393
B12	415

Molecular target: T3, human PD-L1
Test: flow cytometry, MFI on CHO/huPD-L1 cells divided by MFI on Jurkat cells (CD28), 33.3 nM

Binder	Ratio of PDL1:CD28 [ratio]
B1	9.4
B2	18.8
B3	10.2
B4	15
B5	21.4
B6	18.5
B7	8.1
B8	10.8
B9	10.6
B10	10.7
B11	20.1
B12	50.1

Molecular target: T5, human PD-L1 (human, UniProt Q9NZQ7 19-290)
T5 construct: whole, on cells; also called huPD-L1
Test: flow cytometry, CHO cells stably expressing huPD-L1, 33.3 nM, PE anti-human Fc
T5 sequence (Q9NZQ7 19-290): as above

Binder	MFI at 33.3 nM [MFI]
B15	14500
B13	8420

Molecular target: T6, human CD28 (human, UniProt P10747 19-220)
T6 construct: whole, on cells; Jurkat/IL2 reporter cells, which endogenously express CD28
Test: flow cytometry, Jurkat/IL2 reporter cells (endogenous CD28), 33.3 nM Fc fusion, PE anti-human Fc

Binder	MFI at 33.3 nM [MFI]
B1	7250
B2	2550
B3	6350
B4	1820
B5	2450
B6	3640
B7	8190
B8	6250
B9	5120
B10	3130
B11	3230
B12	1370

Molecular target: T7, human CD28 (human, UniProt P10747 19-220)
T7 construct: whole, on cells; Endogenous CD28 of Jurkat/IL2 reporter cells
Test: flow cytometry, Jurkat/IL2 reporter cells (endogenous CD28), 33.3 nM, PE anti-human Fc

Binder	MFI at 33.3 nM [MFI]
B16	30
B17	78
B15	1900

Molecular target: T8, human CD28, endogenously expressed on Jurkat/IL2 reporter cells (human, UniProt P10747 19-220)
T8 construct: This is the endogenous CD28 of Jurkat cells
Test: flow cytometry, Jurkat/IL2 reporter cells (endogenous CD28), 33.3 nM Fc fusion, PE anti-human Fc

Binder	MFI at 33.3 nM [MFI]
B18	7630
B19	7540

Molecular target: T6, human CD28
Test: flow cytometry MFI relative to WT CD80 IgV-Fc, Jurkat cells (CD28), 33.3 nM

Binder	Fold change to WT CD80 [fold]
B1	71.1
B2	25
B3	62.2
B4	17.8
B5	24
B6	35.7
B7	80.3
B8	61.3
B9	50.2
B10	30.6
B11	31.6
B12	13.4

Molecular target: T4, human PD-L1 (huPD-L1), full-length, …
Test: flow cytometry; MFI on PD-L1 CHO cells over MFI on Jurkat cells (CD28)

Binder	Ratio of PDL1:CD28 [ratio]
B14	215

Molecular target: T4, human PD-L1 (huPD-L1), full-length, …
Test: flow cytometry, CHO cells expressing huPD-L1; MFI against WT CD80 of the table

Binder	Fold change to WT CD80 [fold]
B14	69.7

Molecular target: T1, human CTLA-4
Test: flow cytometry MFI relative to WT CD80 IgV-Fc, CHO/huCTLA-4 cells, 33.3 nM

Binder	Fold change to WT CD80 [fold]
B1	12.3
B2	11.9
B3	14.7
B4	6
B5	11.7
B6	16.6
B7	18.4
B8	16
B9	8.8
B10	12.8
B11	17.1
B12	15.1
